B1: Rae1(31-368)-Nup98(157-213) heterodimer (complex)
chain 1: DIEVTSSPDDSIGCLSFSPPTLPGNFLIAGSWANDVRCWEVQDSGQTIPKAQQMHTGPVLDVCWSDDGSKVFTASCDKTAKMWDLSSNQAIQIAQHDAPVKTIHWIKAPNYSCVMTGSWDKTLKFWDTRSSNPMMVLQLPERCYCADVIYPMAVVATAERGLIVYQLENQPSEFRRIESPLKHQHRCVAIFKDKQNKPTGFALGSIEGRVAIHYINPPNPAKDNFTFKCHRSNGTNTSAPQDIYAVNGIAFHPVHGTLATVGSDGRFSFWDKDARTKLKTSEQLDQPISACCFNHNGNIFAYASSYDWSKGHEFYNPQKKNYIFLRNAAEELKPRNKK
chain 2: not shown
notes: also called Rae1-Nup98; Rae1-Nup98 complex

What follows are binders tested against B1 (assay: ITC). Details: both partners purified.
Target sequence in this assay (P52948 157-213, chain 2 of 2, one chain of several): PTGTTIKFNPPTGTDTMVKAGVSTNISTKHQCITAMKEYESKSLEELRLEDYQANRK

| Binder | Ka [M⁻¹] | Kd [nM] | stoichiometry N |
| --- | --- | --- | --- |
| SLTENKYSQLDEEQPMEID (source: synthetic peptide) [SARS-CoV-2 ORF6 C1] | 2.62e+06 | 380 | 1.06 |
| DEEQPMEID (source: synthetic peptide) [SARS-CoV-2 ORF6 C4] | 2.25e+06 | 440 | 0.82 |
| YSQLDEEQPMEID (source: synthetic peptide) [SARS-CoV-2 ORF6 C3] | 4.12e+06 | – | 0.9 |
| ENKYSQLDEEQPMEID (source: synthetic peptide) [SARS-CoV-2 ORF6 C2] | 3.58e+06 | 270 | 1.17 |

The binders below were run against T1, Rae1(31-368)-Nup98(157-213) heterodimer (human, UniProt P78406 31-368; P52948 157-213) (assay: ITC). Details: both partners purified.
T1 construct: also called Rae1-Nup98; Rae1-Nup98 complex
T1 sequence (P52948 157-213, chain 2 of 2, one chain of several): as above

| Binder | Kd [nM] |
| --- | --- |
| YSELDDEEPMELDYP [SARS-CoV ORF6 C3 peptide] | 370 |
| RAITDGGESPMEWQTL [MHV-68 ORF10 CTT peptide] | 5710 |
| YSQLDEEQPM (source: synthetic peptide) [SARS-CoV-2 ORF6 C3 lacking the last three residues 59-EID-61 but retaining M58] | 87700 |
| YSELDDEEPMELD [SARS-CoV ORF6 C3 -YP] | 110 |
| YSQLDEEQPMEID (source: synthetic peptide) [SARS-CoV-2 ORF6 C3 peptide] | 240 |

These binders were tested against T2, MHV68-ORF10-CTT (murine gammaherpesvirus 68) (assay: ITC). Details: both partners purified.
T2 construct: source: synthetic peptide
T2 sequence (P52948 157-213): as the sequence (P52948 157-213, chain 2 of 2, one chain of several) above

| Binder | Ka [M⁻¹] |
| --- | --- |
| B1 | 175000 |

Target: B1
Assay: ITC
Details: both partners purified
Remark: another data set of the same source
Target sequence in this assay (P52948 157-213, chain 2 of 2, one chain of several): as above

| Binder | Ka [M⁻¹] | stoichiometry N |
| --- | --- | --- |
| DEMDTHDPNQLRY [VSV-M-NTE] | 8550 | 0.304 |
| YSELDDEEPMELD [SARS-CoV ORF6-YP] | 8.89e+06 | 0.62 |
| YSELDDEEPMELDYP [SARS-CoV ORF6 C3] | 2.69e+06 | 0.63 |
| YSQLDEEQPM (source: synthetic peptide) [SARS-CoV-2- ORF6-EID] | 11400 | 1.01 |

Source: PMC9376891 (Nature Communications, 2022)
